Results on nine molecules are retold here after paper PMC10724200, “A peptide derived from interleukin-10 exhibits potential anticancer activity and can facilitate cell targeting of gold nanoparticles loaded with anticancer therapeutics” (Communications Chemistry, 2023).

Data set [1] has as its system BT-474 breast cancer cells. The data set is described as follows: Therapeutic efficacy: cell viability (CCK-8), BT-474 breast cancer cells. Format: cell-based, human. The text has this: 5-FU is a cytotoxic chemotherapeutic drug used in the treatment of a variety of cancers, including breast cancer. […] The gold nanoparticles fabricated in this study may be used as a delivery material to deliver 5-FU into cancer cells. Here, we loaded 5-FU onto NK20a/Poly A15@Au and Poly A15@Au nanoparticles.

On the set-up of data set [2]: method as in 2 sources, ref 40 = [40]; PMID 22211087; doi:10.7150/ijms.9.33; 40. Kadoyama K Adverse event profiles of 5-fluorouracil and capecitabine: data mining of the public version of the FDA adverse event reporting system, AERS, and reproducibility of clinical observation ||| ref 49 = [49]; 49. Casale, J. & Patel, P. Fluorouracil [Updated 2022 Nov 24]. In StatPearls. (StatPearls Publishing, Treasure Island (FL), 2023). To be noted: cited from earlier work. The text has this:
5-FU is a cytotoxic chemotherapeutic drug used in the treatment of a variety of cancers, including breast cancer. […] The gold nanoparticles fabricated in this study may be used as a delivery material to deliver 5-FU into cancer cells. Here, we loaded 5-FU onto NK20a/Poly A15@Au and Poly A15@Au nanoparticles. […] It works by inhibiting the normal synthesis of thymidine by incorporating 5-FU metabolites into DNA and RNA, eventually leading to the arrest of synthetic pathways and subsequent apoptosis of treated cells[47],[48]. 5-FU is typically administered via intravenous injection. Infusions of 5-FU can be rapidly […] through the circulatory system, and prolonged administration of 5-FU is required to maintain a high level of 5-FU in the body, thereby enhancing clinical efficacy. However, its nonspecific toxicity, ...

Data set [3] has as its target T1, recombinant receptor human IL-10Ra protein (Homo sapiens, UniProt Q13651).
T1 sequence (Q13651 22-578): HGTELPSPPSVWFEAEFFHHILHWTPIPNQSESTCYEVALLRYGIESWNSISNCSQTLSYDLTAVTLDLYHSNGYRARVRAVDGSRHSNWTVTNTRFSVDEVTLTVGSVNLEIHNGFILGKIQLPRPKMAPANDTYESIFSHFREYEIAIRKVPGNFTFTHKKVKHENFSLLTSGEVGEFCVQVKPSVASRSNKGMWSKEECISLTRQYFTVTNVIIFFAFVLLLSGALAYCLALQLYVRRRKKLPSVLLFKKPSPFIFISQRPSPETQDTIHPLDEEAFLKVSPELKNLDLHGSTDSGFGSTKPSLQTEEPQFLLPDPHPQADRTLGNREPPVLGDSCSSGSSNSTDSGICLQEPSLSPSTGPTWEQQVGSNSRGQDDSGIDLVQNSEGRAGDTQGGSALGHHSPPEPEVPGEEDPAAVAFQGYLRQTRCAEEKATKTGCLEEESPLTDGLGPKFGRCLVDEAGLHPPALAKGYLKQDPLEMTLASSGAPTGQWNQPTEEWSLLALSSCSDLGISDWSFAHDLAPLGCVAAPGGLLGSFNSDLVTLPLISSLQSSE
As to the kind of experiment: Biolayer interferometry kinetic assay, binding to IL-10Ra. Conditions: for kon: read-out: ka (association constant). The protocol: Biolayer interferometry (BLI) was applied to analyze peptide–receptor protein interactions. BLI was performed with a ForteBio Octet RED96e System (Sartorius AG, Göttingen, Germany) by using high-precision streptavidin and biosensors. The biosensors were hydrated in a plate for 15 min and then loaded with 10 μg/mL recombinant receptor human IL-10Ra protein and incubated for 150 s. […] After the association step, the biosensor was shifted to the dissociation buffer, phosphate-buffered saline (PBS) with 0.05% Tween20, for dissociation. Dissociation was recorded until equilibrium was reached (120 s).
To measure the binding ability of the designed and negative control peptides (NM25, NK20, NK20a, and control scramble peptide CG20) to the receptor IL-10Ra in vitro, BLI experiments were performed. […] When binding with IL-10Ra, the association constant (ka) of NK20 and NK20a was 1.02 × 10^4 (1/Ms) and 8.14 × 10^3 (1/Ms), respectively. The ka values of the refined peptides were approximately 12-fold higher than that of NM25. […] The equilibrium dissociation constant (KD) of NK20a interactions with IL-1R1was approximately 2000 times greater than that with IL-10Ra, and the calculated dissociation constant of NK20a interactions with IL-1R1 was to be 5000 times greater than that with IL-10Ra interactions (Table 2). […] As a result, NK20a was used for further investigations in this study.
Fig. 3 BLI kinetic assays of the designed peptides binding to the receptor IL-10Ra. Wavelength shift curves show the association and dissociation of the designed peptides (a) NM25, (b) NK20, (c) NK20a, (d) CG20 binding to the IL-10 receptor, and (e) NK20a binding to a control receptor IL-1R1 at various concentrations. Dissociation was recorded at 120 s after the binding started (black dotted line).
(Biolayer interferometry detects binding as a change in optical thickness at a sensor tip.)

Another data set concerns BJAB B-lymphoma cells. As to the kind of experiment: Cell viability assay (CCK-8), B-lymphoma cells. Format: cell-based. To be noted: 50 μg/mL NK20a and/or 10 ng/mL IL-10, 48 h, triplicate. The protocol: BJAB B-lymphoma cell lines were cultured in RPMI 1640 medium supplemented with 10% fetal bovine serum. RAW 264.7 macrophage and BT-474 human breast tumor cell lines were cultured in Dulbecco’s Modified Eagle Medium (DMEM) supplemented with 10% fetal bovine serum, 1% L-glutamine, 100 U/ml penicillin, 100 U/ml streptomycin, and sodium pyruvate. The cells were incubated at 37 °C in a 5% CO2 atmosphere.
For the cell viability assay, B-lymphoma cells were cultured in 96-well plates at a density of 3 × 10^3 cells/well for 24 h. The cells were then treated with 10 ng/mL IL-10 and 50 μg/mL NK20a, and further incubated for 48 h. After incubation, 10 μL of Cell Counting Kit-8 (CCK-8; Enzo Life Sciences, NY, USA) reagent was added, and the cells were incubated at 37 °C for 1 h. Cell viability was quantified by measuring the absorbance at 450 nm by using an ELISA plate reader (CLARIOstar Plus, BMG Labtech, Ortenberg, Germany).
Fig. 4 In vitro binding assay and cytotoxicity study. a B-lymphoma cells were treated with NK20a, and the fluorescence of the treated cells was analyzed through flow cytometry to determine the binding ability of NK20a to the cell surface. The fluorescence distribution of FITC was categorized as treated with NK20a (green) and untreated (red). b Bar chart showing the cell viability of the B-lymphoma cell line treated with 10 ng/mL IL-10, 50 μg/mL NK20a, and both, respectively. […]

For a further data set, the system named is RAW 264.7 macrophages. As to the kind of experiment: Atomic force microscopy of macrophage morphology / activation. Format: cell-based. To be noted: RAW 264.7, AFM; LPS 10 ng/mL, IL-10 10 ng/mL, NK20a 50 μg/mL pretreatment 30 min with LPS; fixed after 24 h. The protocol: Cell morphology was evaluated through atomic force microscopy (AFM) to observe the effects of the peptide on the cells. For AFM experiments, RAW 264.7 macrophages (5 × 10^4 cells/mL) were seeded on coverslips that had been treated with HCl to facilitate cell attachment. The cells were treated with lipopolysaccharides (LPS), NK20a, or IL-10 and incubated at 37 °C. After 24 h of incubation, the medium was removed, and the cells were washed twice with PBS. The cells were then fixed with 4% glutaraldehyde for 40 min. Finally, the fixation solution was removed, the samples were gently washed three times with Milli Q water, and then the samples were dried in a desiccator for 3 h. Cell morphology was imaged using an AFM instrument (Nanowizard, JPK BioAFM, Bruker Nano GmbH, Berlin, Germany). […] The AFM probes used were oxide-sharpened silicon nitride (Si3N4) probes (OMCL-TR400PB-1, Olympus, Tokyo, Japan) with a spring constant of 0.02 N/m. The SPM image processing software package version 3.1.6 (JPK BioAFM, Bruker Nano GmbH, Berlin, Germany) was used for processing and analysis of AFM image data.
Macrophages play a key role in tumor cell clearance. […] In this study, we examined the ability of NK20a to inhibit the anti-inflammatory effects of IL-10 on macrophages. The RAW 264.7 macrophage cell line was used in the evaluation, and the activation of macrophage cells was visualized through AFM. […]

The target of data set [4] is T2, recombinant receptor human IL-10Ra protein (human, UniProt Q13651 22-235).
T2 chain: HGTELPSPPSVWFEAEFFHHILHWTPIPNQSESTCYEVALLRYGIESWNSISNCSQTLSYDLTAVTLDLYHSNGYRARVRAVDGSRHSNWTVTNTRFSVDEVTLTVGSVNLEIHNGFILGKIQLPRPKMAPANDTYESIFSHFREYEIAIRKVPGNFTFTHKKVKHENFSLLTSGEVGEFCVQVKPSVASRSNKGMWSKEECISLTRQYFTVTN
As to the kind of experiment: BLI; steady-state analysis.

Data set [5] deals with T3, recombinant receptor human IL-10Ra protein (human, UniProt Q13651 22-235).
T3 construct: Interleukin-10 receptor subunit alpha, human, recombinant; also called IL-10 receptor
T3 sequence (looked up): T2 chain
The data set is described as follows: BLI; ForteBio Octet RED96e, streptavidin biosensors loaded with 10 μg/mL recombinant human IL-10Ra (150 s); peptides at 3.12-100.0 μM, association 120 s; dissociation 120 s in PBS with 0.05% Tween20. To be noted: both partners purified.

A further data set addresses receptor IL-1R1 (UniProt P14778 18-569, Source and limits not given; taken as the recombinant extracellular domain (UniProt topological domain 18-336) by convention. Human inferred from the human IL-10Ra used in the same BLI assay. Likely). As to the kind of experiment: BLI; control receptor IL-1R1 in place of IL-10Ra; NK20a at various concentrations. To be noted: both partners purified.

The mark [6] stands for this setting: BLI kinetic, human IL-10Ra, peptides 3.12-100.0 μM, association 120 s.

“Also recorded” adds a separate entry of the source. Ends that are not written are not given here. Where only a bound is given, the exact number is not on record here.

Chain of receptor IL-1R1 (P14778 18-569): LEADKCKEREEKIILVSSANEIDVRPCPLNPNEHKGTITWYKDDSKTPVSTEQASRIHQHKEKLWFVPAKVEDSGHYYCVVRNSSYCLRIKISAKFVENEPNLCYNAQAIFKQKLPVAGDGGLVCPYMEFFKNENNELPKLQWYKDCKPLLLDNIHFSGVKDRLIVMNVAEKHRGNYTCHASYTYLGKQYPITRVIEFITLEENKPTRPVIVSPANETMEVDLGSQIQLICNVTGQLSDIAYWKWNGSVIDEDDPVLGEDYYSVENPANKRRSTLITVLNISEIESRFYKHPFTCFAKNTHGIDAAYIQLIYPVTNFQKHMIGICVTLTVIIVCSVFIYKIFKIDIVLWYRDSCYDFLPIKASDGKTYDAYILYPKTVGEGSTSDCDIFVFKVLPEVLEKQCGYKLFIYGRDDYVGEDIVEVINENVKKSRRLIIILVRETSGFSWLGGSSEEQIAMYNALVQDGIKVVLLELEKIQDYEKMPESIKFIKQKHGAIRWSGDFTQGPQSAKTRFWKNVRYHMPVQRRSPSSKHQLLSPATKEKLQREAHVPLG

In the case of `O=c1[nH]cc(F)c(=O)[nH]1` [5-FU, 5-fluorouracil], in data set [1] (BT-474, free 5-FU at 80 μM, 72 h, CCK-8), the survival rate result is given as “more than 70%”. In addition, the “cell survival / therapeutic effect on BT-474 (in words)” value in data set [1] (CCK-8, 72 h, 5-FU free up to 80 μM) is “did not exhibit a significant therapeutic effect against the breast cancer cells”. Moreover, in data set [2], the “membrane permeability (in words)” value is “poor membrane permeability”; the “membrane permeability / half-life in plasma (in words)” value is “poor membrane permeability, and short half-life in plasma”.

Consider “CPLNGSTVYGHLRHCLSCSG [CG20, random, control scramble peptide, reference compound]”, for which, in data set [3] (BLI), the “binding to IL-10Ra (in words)” value is “not able to bind to IL-10Ra”.

On to “IL-10: immune regulatory cytokine with strong anti-inflammatory activity”, for which the “cell proliferation / viability (in words)” value in the data set on BJAB B-lymphoma cells was “did not significantly promote the proliferation of lymphoma B cells”. Further, the “macrophage activation, morphology (in words)” value in the data set with RAW 264.7 macrophages was “the activation of macrophages was suppressed; also recorded: inhibited the inflammation of LPS-stimulated cells”. Also, the “kd (dissociation constant)” value in data set [3] (BLI kinetic, human IL-10Ra, dissociation 120 s in PBS with 0.05% Tween20) was below 1e-07 s⁻¹. The “ka (association constant)” value in data set [3] (setting [6]) was found to be 224000 M⁻¹ s⁻¹.

NMLRDLRDAFSRVKTFFQMK [NK20]: in data set [3] (setting [6]), the kon stood at 10200 M⁻¹ s⁻¹.

Turning to NMLRDLRDAFSRVKTFFQMKDQLDN [NM25], the kon in data set [3] (setting [6]) amounted to 832 M⁻¹ s⁻¹.

B1: NM25 peptide (peptide)
peptide: NMLRDLRDAFSRVKTFFQMKDQLDN
notes: human IL-10; also called original peptide; source: synthetic peptide (GeneMark, GMbiolab Co., solid-phase)
B1: the Kd in data set [4] is 0.55 µM; in data set [5], 41 µM. For the same molecule, the koff in data set [5] stood at 0.0341 s⁻¹.

B2: Human interleukin-10 (IL-10) (ligand, UniProt P22301 19-178, looked up)
chain: SPGQGTQSENSCTHFPGNLPNMLRDLRDAFSRVKTFFQMKDQLDNLLLKESLLEDFKGYLGCQALSEMIQFYLEEVMPQAENQDPDIKAHVNSLGENLKTLRLRLRRCHRFLPCENKSKAVEQVKNAFNKLQEKGIYKAMSEFDIFINYIEAYMTMKIRN
notes: Interleukin-10, human; the methods of the BLI describe only the peptides as analytes; also called IL-10 cytokine
Turning to B2, in data set [4], the Kd was found to be 1 µM. In data set [5], the Kd was below 1e-06 µM, the koff was below 1e-07 s⁻¹ and the kon was 224000 M⁻¹ s⁻¹.

B3: NK20 peptide (peptide)
peptide: NMLRDLRDAFSRVKTFFQMK
notes: truncation of NM25 (five C-terminal residues removed); stretch of human IL-10; source: synthetic peptide (GeneMark, GMbiolab Co., solid-phase)
As to B3, the Kd in data set [4] was 0.26 µM. In data set [5], the dissociation constant (Kd) amounted to 21.4 µM and the koff stood at 0.218 s⁻¹.

B4: NK20a peptide (peptide)
peptide: NMLRNLRNAFSRVKTFFQMK
notes: NK20 with two Asp replaced by Asn; stretch of human IL-10; source: synthetic peptide (GeneMark, GMbiolab Co., solid-phase)
Take B4: the Kd in data set [4] is 0.15 µM; with receptor IL-1R1, 28000 µM; in data set [5], 11.2 µM. The koff came to 512 s⁻¹ with receptor IL-1R1 and 0.0909 s⁻¹ in data set [5].

One may read the Kd as a measure of binding affinity in units of concentration. For orientation: koff means the first-order rate constant of dissociation.
